Test results as given in patent CN116769729A (UNIV SCIENCE & TECHNOLOGY CHINA, dated 2023).

Assays:
[1] = biological target: T1, 小鼠CD150胞外段蛋白 (CD150m, hFc removed by TEV cleavage) (mouse, UniProt Q9QUM4 25-242); test: indirect ELISA, CD150 protein coated at 0.25 μg/ml, HRP anti-rat IgG detection
T1 construct: The monomeric protein was used; In the BLI assay the protein was biotinylated (biotin-CD150); also called CD150蛋白; biotin-CD150
T1 sequence: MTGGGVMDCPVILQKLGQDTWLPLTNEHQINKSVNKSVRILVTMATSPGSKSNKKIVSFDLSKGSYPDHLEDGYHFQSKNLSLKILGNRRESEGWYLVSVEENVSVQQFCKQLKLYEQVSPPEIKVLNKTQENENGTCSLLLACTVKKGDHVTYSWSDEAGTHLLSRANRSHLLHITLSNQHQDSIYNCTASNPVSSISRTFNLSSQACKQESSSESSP

[2] = biological target: T2, 小鼠CD150 on mouse spleen cells (mouse, UniProt Q9QUM4 25-343); test: flow cytometry on mouse spleen cells
T2 construct: This is endogenous CD150 on mouse splenocytes in the flow cytometry assay
T2 sequence: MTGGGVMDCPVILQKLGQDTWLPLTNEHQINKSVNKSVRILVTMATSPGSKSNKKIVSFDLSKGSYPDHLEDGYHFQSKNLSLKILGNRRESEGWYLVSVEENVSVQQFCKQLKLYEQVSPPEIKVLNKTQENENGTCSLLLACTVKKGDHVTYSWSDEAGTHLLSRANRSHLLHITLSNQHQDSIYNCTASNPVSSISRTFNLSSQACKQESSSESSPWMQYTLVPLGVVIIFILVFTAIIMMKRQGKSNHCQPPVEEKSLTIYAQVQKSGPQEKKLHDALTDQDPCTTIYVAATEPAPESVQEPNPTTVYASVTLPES

EC50 [1]: 1.13 µg/mL | binding result [2]: binds
B1: 抗CD150单克隆抗体 (produced by rat hybridoma mCD150-mAb-1, CGMCC No.45539) (antibody, V domains shown)
VH: QIQLVQSGPELKKPGESVKISCKASGYTFTDYAMNWVKQAPGNGLKWMGYINTQTGKPTYADDFKQRFVFSLETSASTAYLQINNLNIEDTATYFCTRYNSGNWFAYWGQGTLVTVSS
VL: DIQMTQTPSSMPASLGERVTISCRAGQGISNYLNWYQQKPDGAIKPLIYYTSNLQSGVPSRFSGSGSGTDYSLTISSLEPEDFAMYYCQQYDSSPYTFGAGTKLELK
notes: also called CD150的单抗; 抗CD150抗体
